We go through one molecule from US20210139610A1, “COMPOSITIONS AND METHODS FOR MEDIATING EPS” (priority 2018, published 2021).

“Also recorded” adds a separate entry of the source.

The subject of one experiment is UPEC biofilms. The experiment can be described thus: UPEC in vitro biofilm prevention (at seeding) / disruption (at 24 h). Format: cell-based, uropathogenic Escherichia coli (UPEC). How it is done:
FIG. 6: Mature biofilms are resistant to disruption by DNase. DNase (Pulmozyme; 5 units) was added at seeding (prevention) or at 24 h (disruption) to the respective in vitro preformed NTHI and UPEC biofilms. After a total of 40 h, biofilms were stained with LIVE/DEAD®, visualized via CLSM and analyzed by COMSTAT. Bars represent the SEM. Statistical significance compared to control was assessed by unpaired t-tests, *P<0.05; **P<0.01.
FIGS. 35A-35D: DNABII proteins and polyamines (PAs) interact synergistically to induce DNase resistance. […] Biofilms were stained, fixed, visualized via CLSM, and analyzed by COMSTAT. […] Statistical significance compared to Control (No DNase) was assessed by unpaired t-tests, **P<0.01.
FIG. 49: Z-DNA stabilization stimulates biofilm formation. […] Biofilms were stained, fixed, visualized via CLSM, and analyzed by COMSTAT. […] Statistical significance compared to Control (no antibodies) was assessed by paired t-tests, *P<0.05, **P<0.01.
Applicants evaluated the antibiofilm effect of Pulmozyme®, a recombinant human DNase that is used in conjunction with standard therapies for the management of cystic fibrosis (CF) patients to improve pulmonary function. […] The resultant biofilms were stained with LIVE/DEAD® and evaluated using CLSM and COMSTAT analysis.

Experiment [1] concerns the target T1, DNABII-polyamine dependent DNA structures (Haemophilus influenzae, UniProt P43722).
T1 sequence (P43722 whole entry, looked up): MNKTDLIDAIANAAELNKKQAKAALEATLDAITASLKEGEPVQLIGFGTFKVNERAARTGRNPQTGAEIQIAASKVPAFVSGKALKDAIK
Kind of experiment: EPS scaffold mimetic (gDNA + HU + spermidine) structures, CLSM. Type of experiment: biochemical. The following applies: gDNA 2 μg/ml + HU + spermidine; Pulmozyme treatment. The method, then: FIGS. 4A-4B: Anti-DNABII disrupts DNABII-polyamine (PA) dependent structures. (FIG. 4A) DNA structures were formed by incubating spermidine (300 μM) and HU (1 μM) in buffer that contained genomic DNA (gDNA; 2 μg/ml) for 40 h. Immunofluorescence CLSM images of DNABII-polyamine dependent DNA structures. Probed for DNABII proteins (white; indicated on the right side of the image) and counterstained with DAPI (white; indicated on the left side of the image). DNABII polyamine dependent DNA structures incorporate DNABII proteins. (FIG. 4B) EPS structures were formed as in (FIG. 4A) for 24 h and treated for additional 16 h with 1:50 dilution of DNABII antiserum (indicated below the image). Fluorescence CLSM images stained with DAPI (white). DNABII-polyamine dependent DNA structures require DNABII proteins.
FIG. 45: Polyamines and DNABII proteins stimulate Z-DNA, which is DNAse resistant. Immunofluorescence images of EPS scaffold mimetic formed de novo by addition of DNABII protein (HUNTHI, 500 nM) and spermidine (300 μM) to purified genomic DNA (2 μg/ml) and incubation at 37° C. for 16 h. […]
Applicants hypothesized that DNABII and polyamines interact with eDNA synergistically to confer DNase resistance to mature biofilms. […] Degradation was assessed by agarose gel electrophoresis and UV illumination. […]

The next experiment relates to genomic DNA. The experiment can be described thus: Spermidine sensitivity of nucleases on genomic DNA. Type of experiment: biochemical. As to conditions: Spermidine titrated from 10 μM-10 mM.

B1: DNase: Pulmozyme, a recombinant human DNase used for management of cystic fibrosis patients (protein, UniProt P24855 23-282, looked up)
Deoxyribonuclease-1: LKIAAFNIQTFGETKMSNATLVSYIVQILSRYDIALVQEVRDSHLTAVGKLLDNLNQDAPDTYHYVVSEPLGRNSYKERYLFVYRPDQVSAVDSYYYDDGCEPCGNDTFNREPAIVRFFSRFTEVREFAIVPLHAAPGDAVAEIDALYDVYLDVQEKWGLEDVMLMGDFNAGCSYVRPSQWSSIRLWTSPTFQWLIPDSADTTATPTHCAYDRIVVAGMLLRGAVVPDSALPFNFQAAYGLSDQLAQAISDHYPVEVMLK
Regarding B1, in the experiment with UPEC biofilms (DNase (Pulmozyme) added at 24 h), the “UPEC mature biofilm disruption” value is recorded as “unable to disrupt mature biofilms; also recorded: not disrupt extant biofilms”. Further, the “UPEC biofilm prevention (average thickness, biomass)” value in the experiment on UPEC biofilms (DNase (Pulmozyme) added at seeding) is “significant reduction in average thickness and biomass of NTHI and UPEC biofilms; also recorded: can prevent”. In experiment [1], the “effect of DNase on EPS scaffold mimetic structures” value is “DNA structures were resistant to DNase; also recorded: selectively eliminated B-DNA whereas Z-DNA remained intact”. For the same molecule, the “Spd inhibition: spermidine concentration where nuclease was reduced to <10% activity on genomic DNA” value in the experiment on genomic DNA worked out at 300 µM.
